Experimental findings from article doi:10.1101/575795 are described below.

The test addresses CCR5-SNAP labeled with Alexa-488 (CCR5-SNAP-488) (human) (UniProt P51681). In words: fluorescence cross-correlation spectroscopy.
UniProt P51681, sequence (P51681 whole entry): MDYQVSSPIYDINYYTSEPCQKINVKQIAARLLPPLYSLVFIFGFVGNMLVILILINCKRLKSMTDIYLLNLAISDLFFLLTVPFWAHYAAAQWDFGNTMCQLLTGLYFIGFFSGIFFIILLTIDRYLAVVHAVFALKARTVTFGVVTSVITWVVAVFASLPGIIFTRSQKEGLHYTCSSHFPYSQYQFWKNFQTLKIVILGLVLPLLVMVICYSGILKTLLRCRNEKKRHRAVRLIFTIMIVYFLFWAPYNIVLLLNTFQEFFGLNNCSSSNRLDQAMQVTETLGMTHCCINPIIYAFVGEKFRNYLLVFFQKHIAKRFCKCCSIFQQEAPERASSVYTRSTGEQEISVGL
Broadly, the Kd is the constant that tells how readily two partners part at equilibrium. Read a high Kd as lower affinity. Consider “Alexa-647-labeled 6P4-RANTES (6P4-647) (from UniProt P13501 24-91) (ligand)”, for which the Kd came out at 10.4 nM.

Usually Ki stands for the equilibrium dissociation constant of an inhibitor or competing ligand from its target. A higher Ki goes with lower affinity. In the case of “6P4-RANTES, non-labeled (from UniProt P13501 24-91) (ligand)”, the Ki amounted to 3.5 nM. For “Alexa-647-labeled 5P12-RANTES (5P12-647) (from UniProt P13501 24-91) (ligand)”, the Kd came to 0.37 nM.

For the substance “Alexa-647-labeled PSC-RANTES (PSC-647) (from UniProt P13501 24-91) (ligand)”, the Kd was found to be 6.6 nM. On the same count and under the same terms, in the case of “Alexa-647-labeled 5P14-RANTES (5P14-647) (from UniProt P13501 24-91) (ligand)” it was 0.48 nM.

“5P12-RANTES, non-labeled (from UniProt P13501 24-91) (ligand)” returned a Ki of 0.14 nM.
